Reverse-splicing fitness data for 15 variants are collected here from the RNAGym collection of RNA variant scans (doi:10.1093/molbev/msab373).

The chains are these.
B1: Azoarcus group I ribozyme (parent)
chain: GUGCCUUGCGCCGGGAAACCACGCAAGGGAUGGUGUCAAAUUCGGCGAAACCUAAGCGCCCGCCCGGGCGUAUGGCAACGCCGAGCCAAGCUUCGGCGCCUGCGCCGAUGAAGGUGUAGAGACUAGACGGCACCCACCUAAGGCAAACGCUAUGGUGAAGGCAUAGUCCAGGGAGUGGCGAAAGUCACACAAACCGG

The data set covers variants of B1. The experiment in a line: reverse-splicing fitness (ratio to wild type); higher = more active; in vitro selection; Mg2+ level not given. The method in brief:
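An in vitro group I ribozyme library with randomized positions was T7-transcribed and gel-purified. In triplicate, 10 pmol RNA in EPPS pH 7.5 was reacted with 50 pmoles of a 30-nt RNA substrate for 1 h at 37 °C across several added MgCl2 levels (1–48 mM), then stopped with EDTA. Products were reverse transcribed from a substrate-complementary primer, PCR-amplified and sequenced (HiSeq 4000). Fitness is a variant's read proportion after selection over that before, normalised to wild type.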
In the case of GUGCCUUGCGCCGGGAAACCACGCAAGGGAUGGUGUCAAAUUCGGCGAAACCUAAGCGCCCGCCCGGGCGUAUGGCAACGCUGAGCCAAGCUUCGGCGCCUGCGCCGAUGGAGGUGUAGUGACUAGACGGCACCCACCUAAGGCAAACGUUAUGGUGAAGGCAUAGUCUAGGGAGAGGCGAAAGUCACACAAACCGG [C82U A111G A120U C150U C169U U176A], the reverse-splicing fitness worked out at 0.00404.
The result for GUGCCUUGCGCCGGGAAACCACGCAAGGGAUGGUGUCAAAUUCGGCGAAACCUAAGCGCCCGCCCGGGCGUAUGGCAACGCAGAGCCAAGCUUCGGCGCCUGCGCCGAUGAAGGUGUAGCGACUAGACGGCACCCACCUAAGGCGAACGUUAUGGUGAAGGCAUAGUCCAGGGAGGGGCGAAAGUCACACAAACCGG [C82A A120C A145G C150U U176G] reads 0.0102; that for GUGCCUUGCGCCGGGAAACCACGCAAGGGAUGGUGUCAAAUUCGGCGAAACCUAAGCGCCCGCCCGGGCGUAUGGCAACGCUGAGCCAAGCUUCGGCGCCUGCGCCGAUGAAGGUGUAGUGACUAGACGGCACCCACCUAAGGCUAACGGUAUGGUGAAGGCAUAGUCUAGGGAGGGGCGAAAGUCACACAAACCGG [C82U A120U A145U C150G C169U U176G], 0.00186; that for GUGCCUUGCGCCGGGAAACCACGCAAGGGAUGGUGUCAAAUUCGGCGAAACCUAAGCGCCCGCCCGGGCGUAUGGCAACGCGGAGCCAAGCUUCGGCGCCUGCGCCGAUGAAGGUGUAGUGACUAGACGGCACCCACCUAAGGCAAACGAUAUGGUGAAGGCAUAGUCCAGGGAGUGGCGAAAGUCACACAAACCGG [C82G A120U C150A], 0.0159.
The result for GUGCCUUGCGCCGGGAAACCACGCAAGGGAUGGUGUCAAAUUCGGCGAAACCUAAGCGCCCGCCCGGGCGUAUGGCAACGCAGAGCCAAGCUUCGGCGCCUGCGCCGAUGCAGGUGUAGAGACUAGACGGCACCCACCUAAGGCUAACGGUAUGGUGAAGGCAUAGUCUAGGGAGGGGCGAAAGUCACACAAACCGG [C82A A111C A145U C150G C169U U176G] reads 0.00827; that for GUGCCUUGCGCCGGGAAACCACGCAAGGGAUGGUGUCAAAUUCGGCGAAACCUAAGCGCCCGCCCGGGCGUAUGGCAACGCAGAGCCAAGCUUCGGCGCCUGCGCCGAUGGAGGUGUAGCGACUAGACGGCACCCACCUAAGGCCAACGAUAUGGUGAAGGCAUAGUCCAGGGAGUGGCGAAAGUCACACAAACCGG [C82A A111G A120C A145C C150A], 0.00953.
Turning to GUGCCUUGCGCCGGGAAACCACGCAAGGGAUGGUGUCAAAUUCGGCGAAACCUAAGCGCCCGCCCGGGCGUAUGGCAACGCAGAGCCAAGCUUCGGCGCCUGCGCCGAUGCAGGUGUAGCGACUAGACGGCACCCACCUAAGGCUAACGAUAUGGUGAAGGCAUAGUCGAGGGAGUGGCGAAAGUCACACAAACCGG [C82A A111C A120C A145U C150A C169G], the reverse-splicing fitness is 0.00824.
The value for GUGCCUUGCGCCGGGAAACCACGCAAGGGAUGGUGUCAAAUUCGGCGAAACCUAAGCGCCCGCCCGGGCGUAUGGCAACGCUGAGCCAAGCUUCGGCGCCUGCGCCGAUGAAGGUGUAGGGACUAGACGGCACCCACCUAAGGCUAACGUUAUGGUGAAGGCAUAGUCUAGGGAGUGGCGAAAGUCACACAAACCGG [C82U A120G A145U C150U C169U] was 0.0143; that for GUGCCUUGCGCCGGGAAACCACGCAAGGGAUGGUGUCAAAUUCGGCGAAACCUAAGCGCCCGCCCGGGCGUAUGGCAACGCCGAGCCAAGCUUCGGCGCCUGCGCCGAUGUAGGUGUAGGGACUAGACGGCACCCACCUAAGGCGAACGGUAUGGUGAAGGCAUAGUCCAGGGAGAGGCGAAAGUCACACAAACCGG [A111U A120G A145G C150G U176A] was 0.0103.
Take GUGCCUUGCGCCGGGAAACCACGCAAGGGAUGGUGUCAAAUUCGGCGAAACCUAAGCGCCCGCCCGGGCGUAUGGCAACGCGGAGCCAAGCUUCGGCGCCUGCGCCGAUGGAGGUGUAGCGACUAGACGGCACCCACCUAAGGCGAACGAUAUGGUGAAGGCAUAGUCUAGGGAGCGGCGAAAGUCACACAAACCGG [C82G A111G A120C A145G C150A C169U U176C]: the reverse-splicing fitness was found to be 0.015.
The value for GUGCCUUGCGCCGGGAAACCACGCAAGGGAUGGUGUCAAAUUCGGCGAAACCUAAGCGCCCGCCCGGGCGUAUGGCAACGCUGAGCCAAGCUUCGGCGCCUGCGCCGAUGAAGGUGUAGGGACUAGACGGCACCCACCUAAGGCAAACGCUAUGGUGAAGGCAUAGUCUAGGGAGCGGCGAAAGUCACACAAACCGG [C82U A120G C169U U176C] was 0.0176; that for GUGCCUUGCGCCGGGAAACCACGCAAGGGAUGGUGUCAAAUUCGGCGAAACCUAAGCGCCCGCCCGGGCGUAUGGCAACGCCGAGCCAAGCUUCGGCGCCUGCGCCGAUGCAGGUGUAGUGACUAGACGGCACCCACCUAAGGCUAACGGUAUGGUGAAGGCAUAGUCCAGGGAGCGGCGAAAGUCACACAAACCGG [A111C A120U A145U C150G U176C] was 0.0313; that for GUGCCUUGCGCCGGGAAACCACGCAAGGGAUGGUGUCAAAUUCGGCGAAACCUAAGCGCCCGCCCGGGCGUAUGGCAACGCAGAGCCAAGCUUCGGCGCCUGCGCCGAUGCAGGUGUAGUGACUAGACGGCACCCACCUAAGGCCAACGUUAUGGUGAAGGCAUAGUCUAGGGAGGGGCGAAAGUCACACAAACCGG [C82A A111C A120U A145C C150U C169U U176G] was 0.00284.
The result for GUGCCUUGCGCCGGGAAACCACGCAAGGGAUGGUGUCAAAUUCGGCGAAACCUAAGCGCCCGCCCGGGCGUAUGGCAACGCAGAGCCAAGCUUCGGCGCCUGCGCCGAUGGAGGUGUAGCGACUAGACGGCACCCACCUAAGGCCAACGUUAUGGUGAAGGCAUAGUCAAGGGAGUGGCGAAAGUCACACAAACCGG [C82A A111G A120C A145C C150U C169A] reads 0.00838.
Regarding GUGCCUUGCGCCGGGAAACCACGCAAGGGAUGGUGUCAAAUUCGGCGAAACCUAAGCGCCCGCCCGGGCGUAUGGCAACGCAGAGCCAAGCUUCGGCGCCUGCGCCGAUGCAGGUGUAGCGACUAGACGGCACCCACCUAAGGCCAACGAUAUGGUGAAGGCAUAGUCGAGGGAGGGGCGAAAGUCACACAAACCGG [C82A A111C A120C A145C C150A C169G U176G], the reverse-splicing fitness came out at 0.00757.
